These results are taken from article PMC8154130.

As usually defined, the Kd is a measure of binding affinity in units of concentration.

Holding throughout (test): EMSA
(In EMSA bound probe runs differently from free probe, usually more slowly.)

In data set [1] the target is T1, C-terminal truncated DDX3X (1-582) (Homo sapiens, UniProt O00571).
The target in data set [2] is T1, C-terminal truncated DDX3X (1-582). This is another data set of the same source.
For data set [3] the target is unchanged. The source holds these as a separate data set.
The target is the same in data set [4]. This is another data set of the same source.
Data set [5] shares this target. This is another data set of the same source.

Read-outs that look alike come from different tables or passages of the source.

B1: D:E (dsRNA)
RNA 1: CUCAACUCAACCCUUCAUCUCAACUCAACCCUUCAU
RNA 2: AUGAAGGGUUGAGUUGAGAUGAAGGGUUGAGUUGAG
For the molecule B1, the binding result in data set [1] is listed as “no binding”.

B2: A:A (dsRNA)
RNA 1: GGCGGCCGCC
RNA 2: GGCGGCCGCC
In the case of B2, the binding result in data set [1] is on record as “no binding”.

UUUUUUUUUUUUUUUUUUUUGGUGGUUGUG (ssRNA) [C]: the Kd in data set [2] came to 217 ± 60 nM; in data set [3], 298 ± 31 nM.

B3: B:B (dsRNA)
RNA 1: UUUUUUUUUUUUUUUUUUUUGGCGGCCGCC
RNA 2: B3 RNA 1
As to B3, the Kd was 285 ± 18 nM in data set [4] and 114 ± 10 nM in data set [5].
